The test concerns p27 KO mice. The experiment in a line: Chronic Ang II infusion for 14 days with daily TAT.protein injection, p27 KO mice. It counts as in vivo. The conditions noted are these: for FS / LVEDD / LVEF / LVESD / PWD: p27 KO, echocardiography at 14 days. Here is the method: (A) Heart-weight corrected for body-weight (left panel) and Masson-stain of myocardial cross sections (right panel). Mean±s.e.m., n=6-8. *P<0.01 vs sham saline. **P<0.01 vs Ang II. Scale bar, 2 mm. (B) Cell size analysis of adult cardiac myocytes isolated from 8-weeks-old mice. One hundred cells from three different mice were analyzed per group. Mean±s.e.m. *P<0.01 vs sham saline. **P<0.01 vs Ang II. (C) Determination of ANF/BNP mRNA levels by qRT-PCR. Mean±s.e.m., n=6-8. *P<0.01 vs sham saline. **P<0.01 vs Ang II. (D) CK2-alpha-prime-dependent kinase activity determined in whole left ventricular tissue samples. One typical result of two independent experiments is shown. (E, F) Ang II action induces apoptosis in p27^−/− mice. (E) Quantification of apoptotic cardiac myocytes (white arrowheads) by in situ TUNEL and GATA4 immunofluorescence histochemistry of left ventricular specimen. Mean±s.e.m., n=4. *P<0.01 vs sham saline. **P<0.05 vs sham saline. #P<0.01. (F) Determination of caspase 3 activity in total left ventricular heart tissue samples. Mean±s.e.m., n=4. *P<0.05 vs sham saline. #P<0.01. (G) Model for CK2-alpha-prime-dependent regulation of cardiac hypertrophy through phosphorylation of p27. Hypertrophic signals stimulate CK2-alpha-prime kinase that phosphorylates p27 at S83 and T187. Phosphorylation of p27 impairs its ability to bind to and inhibit […] activity. Subsequently, p27 is proteasomally degraded allowing hypertrophic growth to proceed.
Next, the inventors examined the effect of transduced proteins on cardiac hypertrophy in p27^−/− mice. Elimination of p27 gene function in these animals completely abrogated the ability of kd.CK2-alpha-prime to block cardiac hypertrophy (FIG. 6A-D). In contrast, hypertrophic responses to Ang II were abolished by p27deltaPi injections. Thus, reconstitution of p27 protein abundance in the myocardium of p27^−/− mice was accompanied by inhibition of Ang II action. Moreover, the inventors observed a marked increase in the number of TUNEL-positive cardiomyocyte nuclei in Ang II-infused p27^−/− mice (FIG. 6E,F) as compared to the WT controls. […] This was in direct contrast to the effect seen by ectopic kd.CK2-alpha-prime consistent with the inventors' previous work showing that CK2 is cardioprotective^73,74.
Spontaneously beating cardiomyocytes from heart ventricles of neonatal rats were cultured and subjected to treatment with angiotensin II (Ang II). DMAT (2-dimethylamino-4,5,6,7-tetrabromo-1H-benzimidazol), DMSO, lactacystin and LLM were obtained from Calbiochem. Ang II was purchased from Sigma. Animal usage was in accordance with approved institutional animal care guidelines. Age-matched male WI C57BL/6 and p27^−/− mice were used in this study. For results shown in FIGS. 1 to 9: Ang II was chronically infused subcutaneously by osmotic pumps (model 2000, Alzet) at a dose of 1.4 μg/kg per minute for 14 days. TAT.proteins (10 mg/kg) were injected intraperitoneally once daily for 14 days. For results shown in FIGS. 10 to 12: Ang II was chronically infused subcutaneously by osmotic pumps (model 2000, Alzet) at a dose of 0.7 μg/kg per minute for 16 days. TAT.proteins (20 mg/kg) were injected intraperitoneally once daily for 8 days starting at day 8. Thoracic aortic banding (TAB) and pressure gradient measurements were performed as described^39.

Setting [1] is: Ang infusion 1.4 μg/kg per minute 14 days, TAT.protein 10 mg/kg i.p. once daily.
Where [2] appears, read: saline infusion, TAT.protein 10 mg/kg i.p. once daily 14 days.

Marks after values point to notes of the source that are not given here.

B1: kd.CK2-α′: catalytically-inactive kinase-dead CK2-alpha-prime, point mutation K69M; TAT-conjugated protein in mice, lentivirally expressed in cardiomyocytes (protein)
chain: MPGPAAGSRARVYAEVNSLRSREYWDYEAHVPSWGNQDDYQLVRKLGRGKYSEVFEAINITNNERVVVMILKPVKKKKIKREVKILENLRGGTNIIKLIDTVKDPVSKTPALVFEYINNTDFKQLYQILTDFDIRFYMYELLKALDYCHSKGIMHRDVKPHNVMIDHQQKKLRLIDWGLAEFYHPAQEYNVRVASRYFKGPELLVDYQMYDYSLDMWSLGCMLASMIFRREPFFHGQDNYDQLVRIAKVLGTEELYGYLKKYHIDLDPHFNDILGQHSRKRWENFIHSENRHLVSPEALDLLDKLLRYDHQQRLTAKEAMEHPYFYPVVKEQSQPCADNAVLSSGLTAAR
modifications: left off: small tags and cut ends
notes: TAT-conjugated protein in mice, lentivirally expressed in cardiomyocytes
In the case of B1, the “cardiac hypertrophy / hypertrophic responses to Ang II” value (Ang II-infused p27−/− mice, TAT.proteins 10 mg/kg i.p. once daily) is “fails to inhibit cardiac hypertrophy”. Further, under setting [1], the FS is recorded as 52 ± 1.9* %, the LVEDD is given as 4.5 ± 0.1* mm, the LVEF was 83 ± 2.8* % and the LVESD was 2.1 ± 0.2* mm. Also, the PWD under setting [1] was 1.2 ± 0.1* mm. Under setting [2], this molecule gave an FS of 39 ± 2.6%, an LVEDD of 3.8 ± 0.2 mm, an LVEF of 69 ± 2.3% and an LVESD of 1.3 ± 0.1 mm. This molecule registered a PWD under setting [2] of 0.7 ± 0.2 mm.

The record behind these values is patent publication US20110086089A1, “USE OF P27KIP1 FOR THE PREVENTION AND TREATMENT OF HEART FAILURE” (UNIVERSITY HEALTH NETWORK, priority 2008, published 2011).
